The experiment deals with 7c12 monobody displayed on phage. Description: ELISA. For orientation: In an ELISA, binding on a coated surface is turned into a signal by an enzyme label.

With GST-Abl SH2 I164E (domain or fragment), the fold reduction of binding against WT is 400 fold.

These data come from PMC3202669.
